This passage reports K half results from PMC2680271.

Data set [1] has as its system KorA WT (IncP-1 plasmid (expressed in E. coli)). Nature of the data set: EMSA.
For data set [2], the system named is KorA Y84A (IncP-1 plasmid (expressed in E. coli)). Nature of the data set: EMSA.

Turning to “korAp fragment (220 bp, EcoRI-cut pSTM12)”, the K half in data set [1] was 300 nM; in data set [2], 200 nM.
